Assay: yeast display, Sf9 membrane polyspecificity reagent, FACS + sequencing; frameworks hold sequencing errors
Outline: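 Polyreactivity labels are assigned by the sorting gate from which each nanobody was recovered. The gates were low and high (top ~1%), set on anti-HA fluorescence for expression and streptavidin fluorescence for reagent binding. Before sorting, galactose-induced (36–48 hours) yeast display cells were stained for 1 hour at 4 °C with 10% biotinylated, detergent-solubilized Sf9 membrane reagent.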

Sequence	polyreactivity (PSR sort gate)
QVQLVESGGGLVQAGGSLRLSCAASGIIFPWSTMGWYRQAPGKERELVAAISSGGRTNYADSVKGRFTISRDNAKNTVYLQMNSLKPEDTAVYYCAAKYYRDRDWGQGTQVTVSS	high polyreactivity
QVQLVESGGGLVQAGGSLRLSCAASGIIFPYYAMGWYRQAPGKERELVAAISIDGSTNYAVSVKGRFTISRDNAKNTVYLQMNSLKPEDTAVYYCNTTAFSTYQVGFLYDYWGQGTQVTVSS	low polyreactivity
QVQLVESGGGLVQAGGSLRLSCAASGIIFPYYAMGWYRQAPGKESELVAAISQSGGSTYYADSVKGRFTISRDNAKNTVFFQMNSVKPEDTAVYYCDKFIPSYHDGDYWGQGTQVTVSS	low polyreactivity
QVQLVESGGGLVQAGGSLRLSCAASGIIFPYYTMGGYRQAPGKERELVARITNGGRTYSADSVKGRFTISRDKAKNTVYLQMNSLKPEDTAVYYCAASWGRRKPRMDYWGQGTQVTVSS	high polyreactivity
QVQLVESGGGLVQAGGSLRLSCAASGIIFQIYAKGWYRQAPGKERELVAAISGGGNTDYADSVKGRFTISRDNAKNTVYLQMNSLKPEDTAVYYCAADFVDWVWSRYGLFEHDYWGQGTQVTVSS	low polyreactivity
QVQLVESGGGLVQAGGSLRLSCAASGIIFQQYAMGWYRQAPGKERELVAAITYSGDGTYYADSVKGRFTISRDNANNTVYLQMNSLKPEDTAVYYCAAYPRDPYKEYDYWGQGTQVTVSS	low polyreactivity
QVQLVESGGGLVQAGGSLRLSCAASGIIFQRNDMGWYRQAPGKERELVANIRDGGITYADSVKGRFTISRDNAKNTVYLQMNSLKPEDTAVYYCARDDTSPGYCDQSSNAAYYYWGQGTQVTVSS	low polyreactivity
QVQLVESGGGLVQAGGSLRLSCAASGIIFQSYTMGWYRQAPGKERELVAAIDSGGSTYYADSVKGRFTISRDNAKNTVYVQMNSLKPEDSAVYYCATDYPLYWSTLYDYDYWGQGTQVTVSS	low polyreactivity
QVQLVESGGGLVQAGGSLRLSCAASGIIFRAYAMGWYRPAPGKERELVAAISWSGGSTYYADSVKGRFTISRDNAKNTVYLQMNSLKPEDTAVYYCAAESLVYDFDYWGQGTQVTVSS	high polyreactivity
QVQLVESGGGLVQAGGSLRLSCAASGIIFRDNAMGWYRQAPGTERELVAAIDSSGGTTYADSVKGRFTISRDNAKNTVYLQMNSLKPEDTAVYYCATEVYSTVSYYGYDYYGRNYYYWGQGPQVTVSS	low polyreactivity
QVQLVESGGGLVQAGGSLRLSCAASGIIFRDYGMGWYRQAPGKESEIVATITYSGGGTYYADSVKGRFTISRDNANNTVYLQMNSLKPEDTAVYYCAAYPFYYDLAYDYWGQGTQVTVSS	low polyreactivity
QVQLVESGGGLVQAGGSLRLSCAASGIIFRGNAMGWYRQAHGKERELVAAISSAGSTNYADSVKGRFTISRDNAKNTVYLQMNSLKPEVTAVFYCAKGSIKYHVTLRGRGYYWGQGTQVTVSS	low polyreactivity
QVQLVESGGGLVQAGGSLRLSCAASGIIFRGYAMGWYRQAPGKERELVASITRRGGSTRYADSVKGRFTISRDNAKNTVYLQMNSLKPEDTAVYYCAAVRVHTDRYNYWGQGTQVTVSS	high polyreactivity
QVQLVESGGGLVQAGGSLRLSCAASGIIFRLNTMGWYRQAPGKEREFVAAITSGGSTHYADSVKGRFTISRDNAKNTVYLQMNSLKPEDTAVYYCAAGHRANYWAWHFYYPGDYWGQGTQVTVSS	low polyreactivity
QVQLVESGGGLVQAGGSLRLSCAASGIIFRRYAMGWYRQAPGKERELVAAISSRGGSTYYADSVKRRFTISRDNAKNTVYLQMNSLKPEDTAVYYCAKGFSGTGGSGDFGYWGQGTQVTVSS	high polyreactivity
QVQLVESGGGLVQAGGSLRLSCAASGIIFRRYAMGWYRQAPGKERELVAVITSGGSTNYADSVKGRFTISRDNAKNTVYLQMNSLKPEDTAVYYCAAKGWVYWIRSRYDYWGQGTQVTVSS	high polyreactivity
QVQLVESGGGLVQAGGSLRLSCAASGIIFRSYAMGWYRQAPGKERELVAAITRSGGSTYADSVKGRFTISRDNAKNTVYLQMTSLKPEDTAVYYCAADRYSGWVYRRDYWGQGTQVTVSS	low polyreactivity
QVQLVESGGGLVQAGGSLRLSCAASGIIFRVYAMGWYRQAPGKERELVATITWSGGSTFYADSVKGRFTISRDNAKNPVDLQRNSLTPEDTAVYYCAARGYLRREQLYVLIRYDYWGQGTQVTVSS	low polyreactivity
QVQLVESGGGLVQAGGSLRLSCAASGIIFRWYAMGWYRQAPGKERELVAGITSTTGTTYYADSVKGRFTISRDNAKNTVYLQMNSLKPEDSAVYYCAADYYWYTTAGVVDSFEYWGQGTQVTVSS	low polyreactivity
QVQLVESGGGLVQAGGSLRLSCAASGIIFRWYGMGWYRQAPGKERELVATITSGGRTNYADSVKGRFTISRDNAKNTVYLQMNSLKPEDTAVYYCAAEKWTVRRFNPYTYYRYDYWGQGTQVTVSS	low polyreactivity

Sequence	polyreactivity (PSR sort gate)
QVQLVESGGGLVQAGGSLRLSCAASGIIFRWYTMGWYRQAPGKERELVAAISTSTGSTYYADSVKGRFTISRDNAKNTVYLQMNSLKPEDTAVYYCNARQFSGLGYWGQGTQVTVSS	high polyreactivity
QVQLVESGGGLVQAGGSLRLSCAASGIIFRYNAMGWYRQAPGKARELVAALSFRGGSTRYADSVKGRCTISRDTATNTVYLQMNSLKPEDTAVYYCNAQRRTYIYDYWGQGTQVTVSS	high polyreactivity
QVQLVESGGGLVQAGGSLRLSCAASGIIFRYNAMGWYRQAPGKERELVAAISRSSGSTYYADSVKGRFTISRDNAKNTVYLQMNSLKPEDTAVYYCAAYPRYRVEYWGQGTQVTVSS	high polyreactivity
QVQLVESGGGLVQAGGSLRLSCAASGIIFRYNAMGWYRQAPGKERELVAAISTGGSTNYADSVKGRFTISRDNAKNTVYLQMNSLKPEDTAVYYCAADWHRAYGAYDYWGQGTQVTVSS	low polyreactivity
QVQLVESGGGLVQAGGSLRLSCAASGIIFRYYDMGWYRQAPGKERELVARITSRGGTYYADSVKGRFTISRDNATNTVYLKMNSLKPEDTAVYYCAASYLLTHGYAYNYWGQGTQVTVSS	high polyreactivity
QVQLVESGGGLVQAGGSLRLSCAASGIIFSDYAMGWYRQAPGKERELVAAITGGGSTYYADSVKGRFTISRDNAKNTVYLQMNRLKPEDTAVYYCNADWARLLIRSTEFDYWGQGTQVTVSS	low polyreactivity
QVQLVESGGGLVQAGGSLRLSCAASGIIFSEYAMGWSRQAPGKERELVAAITKSGGSTYYADSVKGRFTISRDNAKNTVYLQMNSLKPEDTAVYYCAKKTPYIRGKDNYWGQGTQVNVSS	low polyreactivity
QVQLVESGGGLVQAGGSLRLSCAASGIIFSFYAMGWYRQAPGKERELVAAISRSGGSTYYADSVKGRFTISRDNEKNSVYLQMNSLKPEDTAVYYCNADNGASYYYRRYDSLGQGTQVTVSS	high polyreactivity
QVQLVESGGGLVQAGGSLRLSCAASGIIFSHYAMGWYRQAPGKERELVAAISSRGGSTYYADSVKGRFTISRDNAKNTVYLQMNSLKPEDTAVYYCNAKWTSHGTYAEDYWGQGTQVTVSS	high polyreactivity
QVQLVESGGGLVQAGGSLRLSCAASGIIFSINAMGWDRQAPGKERELVAAISRSGGSTNYADSVKGRFTISRDNAKNTVYLQMNSLKPEDTAVYYCATVHRYSVWSHNYWGQGTQVTVAS	high polyreactivity
QVQLVESGGGLVQAGGSLRLSCAASGIIFSIYAMGWYRQAPGKERELVAVISRSSGSTYYADSVKGRFTISRDNAKNTVYLQMNSLKPEDTAVYYCAADRYSYGSNGYPRFEYYYWGQGTQVTVSS	high polyreactivity
QVQLVESGGGLVQAGGSLRLSCAASGIIFSIYTMGRYRQAPGKERELVAAINRSGSRTYYADSVKGRFTISRDNAKNTVYLQMNSLKPEDTAVYYCAAGTGSRDYYWGQGTQVTVSS	high polyreactivity
QVQLVESGGGLVQAGGSLRLSCAASGIIFSLNTMGWYRQAPGKERELVAAISSSGGSTYYADSVKGRFTISRDNAKNTVYLQMTSLKPEDTAVYYCARRYAPNTSLTFYYWGQGTQVTVSS	low polyreactivity
QVQLVESGGGLVQAGGSLRLSCAASGIIFSPYAMGRYRQAPGKERELVAAITYSGDTTYYADSVKGRFTISRDNAKNTVYLQMNSLKPEDTAVYYCAVEDAGQGGDYWGQGTQVTVSS	low polyreactivity
QVQLVESGGGLVQAGGSLRLSCAASGIIFSPYAMGWYRQAPVKERELVAAISYSGGSTYYADSVKGRFTISRDNAKNTVYLQMNSLKPEDTAVYYCAVVYSYYLAVLGYWDYDYWGQGTQVTVSS	low polyreactivity
QVQLVESGGGLVQAGGSLRLSCAASGIIFSRYVMGWSRQAPGKERELVAAISGSGGSTYYADSVKGRFTISRDNAKNTVYLQMNSLKPEDTAVYYCAKRRSWSNRIYGYWGQGTQVTVSS	high polyreactivity
QVQLVESGGGLVQAGGSLRLSCAASGIIFSSNAMGWYRQAPGKERELVAAISRRGGSTYYADSVKGRFTISRDNAKNTVYLQMNSLKPEDTAVYYCNALLYNGAGYDYWGQGTQVTVSS	high polyreactivity
QVQLVESGGGLVQAGGSLRLSCAASGIIFSSYAMGWYRQAPGKERELVAAISLSGGSTYYADSVKGRFTISRDNAKNTVYLQMNSLKPEDTAVFYCNTVRQRARFTKVDYWGQGTQVTVSS	high polyreactivity
QVQLVESGGGLVQAGGSLRLSCAASGIIFSSYGMGWYRQAPGKERELVAAIRWSTGNTYYADSVKGRFTISRDNAKNTVYLQMNSLKPEDTAVYYCAKRSSWGYHFYYWGQGTQVTVSS	high polyreactivity
QVQLVESGGGLVQAGGSLRLSCAASGIIFSWYDMGWYRKAPGKERELVAAISSGDRTNYADSVKGRFTISRDNAKNTVYLQMNSLKPEDTAVYYCAADLFPIAGEYDYWGQGTQVTVSS	high polyreactivity

— the nanobody polyreactivity screen of Harvey et al. (2022)
